Target: T1, human IL-4Rα (interleukin 4 receptor subunit alpha) (human, UniProt P24394 26-232, limits assumed)
T1 sequence (looked up): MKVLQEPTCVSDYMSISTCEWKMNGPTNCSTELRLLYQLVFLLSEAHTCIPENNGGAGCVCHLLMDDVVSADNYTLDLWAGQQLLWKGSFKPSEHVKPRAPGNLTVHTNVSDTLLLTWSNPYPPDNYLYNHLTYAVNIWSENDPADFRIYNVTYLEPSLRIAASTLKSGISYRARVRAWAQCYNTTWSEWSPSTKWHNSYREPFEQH
Assay: cell-based or functional assay

IC50 (read off the curve): ~0.4 nM
B1: AB-12d (antibody, human IgG1, kappa)
heavy chain: not shown
light chain: DIVMTQSPLSLPVTPGEPASISCRSSQSLLYSQGYNYLDWYLQKSGQSPQLLIYLASNRASGVPDRFSGSGSGTDFTLKISRVEAEDVGFYYCMQSLFTPYTFGQGTKLEIKRTVAAPSVFIFPPSDEQLKSGTASVVCLLNNFYPREAKVQWKVDNALQSGNSQESVTEQDSKDSTYSLSSTLTLSKADYEKHKVYACEVTHQGLSSPVTKSFNRGEC
